{"source": "patent US20050272633", "proteins": {"B1": {"name": "myc tagged NIK (pcS3MTNIK) (protein)", "chain": "MAVMEMACPGAPGSAVGQQKELPKAKEKTPPLGKKQSSVYKLEAVEKSPVFCGKWEILNDVITKGTAKEGSEAGPAAISIIAQAECENSQEFSPTFSERIFIAGSKQYSQSESLDQIPNNVAHATEGKMARVCWKGKRRSKARKKRKKKSSKSLAHAGVALAKPLPRTPEQESCTIPVQEDESPLGAPYVRNTPQFTKPLKEPGLGQLCFKQLGEGLRPALPRSELHKLISPLQCLNHVWKLHHPQDGGPLPLPTHPFPYSRLPHPFPFHPLQPWKPHPLESFLGKLACVDSQKPLPDPHLSKLACVDSPKPLPGPHLEPSCLSRGAHEKFSVEEYLVHALQGSVSSGQAHSLTSLAKTWAARGSRSREPSPKTEDNEGVLLTEKLKPVDYEYREEVHWATHQLRLGRGSFGEVHRMEDKQTGFQCAVKKVRLEVFRAEELMACAGLTSPRIVPLYGAVREGPWVNIFMELLEGGSLGQLVKEQGCLPEDRALYYLGQALEGLEYLHSRRILHGDVKADNVLLSSDGSHAALCDFGHAVCLQPDGLGKSLLTGDYIPGTETHMAPEVVLGRSCDAKVDVWSSCCMMLHMLNGCHPWTQFFRGPLCLKIASEPPPVREIPPSCAPLTAQAIQEGLRKEPIHRVSAAELGGKVNRALQQVGGLKSPWRGEYKEPRHPPPNQANYHQTLHAQPRELSPRAPGPRPAEETTGRAPKLQPPLPPEPPEPNKSPPLTLSKEESGMWEPLPLSSLEPAPARNPSSPERKATVPEQELQQLEIELFLNSLSQPFSLEEQEQILSCLSIDSLSLSDDSEKNPSKASQSSRDTLSSGVHSWSSQAEARSSSWNMVLARGRPTDTPSYFNGVKVQIQSLNGEHLHIREFHRVKVGDIATGISSQIPAAAFSLVTKDGQPVRYDMEVPDSGIDLQCTLAPDGSFAWSWRVKHGQLENRP"}}, "target": "T1, IL-2 receptor common gamma chain (cγc), full length (1-369), P31785", "T1 chain": "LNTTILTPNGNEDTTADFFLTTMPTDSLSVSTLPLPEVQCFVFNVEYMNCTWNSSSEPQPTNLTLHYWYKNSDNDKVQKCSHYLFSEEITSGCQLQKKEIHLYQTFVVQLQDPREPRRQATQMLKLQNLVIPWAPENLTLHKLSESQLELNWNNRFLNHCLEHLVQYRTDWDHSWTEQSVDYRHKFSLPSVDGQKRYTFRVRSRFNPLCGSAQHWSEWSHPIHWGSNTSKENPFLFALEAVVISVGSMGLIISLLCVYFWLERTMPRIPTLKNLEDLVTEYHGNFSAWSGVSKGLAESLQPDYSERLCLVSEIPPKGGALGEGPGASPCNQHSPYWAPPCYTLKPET", "data": [{"protein": "B1", "values": [{"measurement": "in vitro kinase assay of anti NIK immunoprecipitates: NIK self- and IKK1-phosphorylation", "result": "A three fold increase in phosphorylation of NIK self- and IKK1-phosphorylation was observed in the presence of cγc"}]}]}
